Usually IC50 stands for the concentration at which inhibition is half-maximal.

The text below walks through data of paper PMC8575140 (bioRxiv, 2021).

The assay deals with SARS-CoV-2 receptor-binding domain (SARS-CoV-2, UniProt P0DTC2).

B1: NCI-CoV-1B5 VHH (VHH)
VHH: DVQLVESGGGSVQAGGSLRLSCTGSRYTYSTYCMGWFRQAPGKEEEAVAIINSGGGEPYYGDSVKGRFTISQDRAKNTVYLQMDGLQPDDTAIYYCVAADSHNSRCYLGRSYVNYWGQGTQVTVSS
B1 yielded a half-maximal inhibitory concentration (IC50) of 3.2 nM. This lies in the single-digit nanomolar range.
